{
  "source": "paper PMC5974087",
  "about": "“The RPAP3-Cterminal domain identifies R2TP-like quaternary chaperones” (Nature Communications, 2018)",
  "binders": {"B1": {"name": "RPAP3_(535-665), C-terminal domain of human RPAP3 (domain or fragment, UniProt Q9H6T3 535-665, looked up)", "chain": "AQFATTVLPPIPANSFQLESDFRQLKSSPDMLYQYLKQIEPSLYPKLFQKNLDPDVFNQIVKILHDFYIEKEKPLLIFEILQRLSELKRFDMAVMFMSETEKKIARALFNHIDKSGLKDSSVEELKKRYGG", "modifications": "13C/15N isotope labelling in the NMR samples", "notes": "RPAP3, human, residues 535-665; numbering of isoform 1; Vector pnEA-3CH; also called RPAP3-Cter; RPAP3 C-terminal domain; source: E. coli (DE3) pRARE2, purified (TALON, HRV-3C cleavage, S75 size exclusion)"}},
  "biological_target": "T1, recombinant RUVBL1-RUVBL2 complex (His_RUVBL1_Flag_RUVBL2) (human, UniProt Q9Y265 1-456; Q9Y230 1-463)",
  "T1 construct": "Purified predominantly as a dodecamer; hetero-hexamers and hetero-dodecamers in native MS; the SPR fit counts one hexamer; The methods tell different things of the RUVBL2 tag (N-terminal FLAG with TEV site; 3xFLAG in the NMR methods); also called RUVBL1/2; RUVBL1/2 hetero-multimers; source: E. coli (DE3), co-expressed, purified (HisTrap, anti-Flag M2 gel, Superdex S200, Superose 6); not shown: …",
  "T1 sequence (Q9Y265 whole entry, chain 1 of 2)": "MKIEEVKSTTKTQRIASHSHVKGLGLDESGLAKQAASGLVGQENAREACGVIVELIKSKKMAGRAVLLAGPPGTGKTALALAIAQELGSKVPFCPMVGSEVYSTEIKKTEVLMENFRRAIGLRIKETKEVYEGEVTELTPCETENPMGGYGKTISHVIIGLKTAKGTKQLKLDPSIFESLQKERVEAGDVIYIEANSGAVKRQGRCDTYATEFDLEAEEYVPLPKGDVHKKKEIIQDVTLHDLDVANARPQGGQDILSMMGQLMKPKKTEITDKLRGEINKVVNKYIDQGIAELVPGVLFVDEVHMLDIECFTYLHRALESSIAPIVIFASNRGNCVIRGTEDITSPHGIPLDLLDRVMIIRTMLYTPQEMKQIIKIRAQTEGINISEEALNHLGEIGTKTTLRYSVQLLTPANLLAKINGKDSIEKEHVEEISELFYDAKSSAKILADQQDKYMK",
  "T1 sequence (Q9Y230 whole entry, chain 2 of 2)": "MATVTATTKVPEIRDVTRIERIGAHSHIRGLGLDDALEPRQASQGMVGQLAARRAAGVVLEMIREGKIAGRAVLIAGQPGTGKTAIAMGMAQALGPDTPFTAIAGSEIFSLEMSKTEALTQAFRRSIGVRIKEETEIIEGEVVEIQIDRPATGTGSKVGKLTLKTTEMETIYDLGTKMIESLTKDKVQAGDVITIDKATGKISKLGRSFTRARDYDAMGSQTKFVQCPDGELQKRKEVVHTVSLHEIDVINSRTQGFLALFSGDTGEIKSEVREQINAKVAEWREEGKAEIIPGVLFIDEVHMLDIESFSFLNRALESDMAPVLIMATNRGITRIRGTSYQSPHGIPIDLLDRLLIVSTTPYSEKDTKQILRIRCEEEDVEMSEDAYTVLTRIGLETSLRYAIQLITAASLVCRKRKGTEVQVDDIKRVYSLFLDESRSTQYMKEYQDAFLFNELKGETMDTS",
  "assay": "SPR; RPAP3-Cter amine-coupled on CM5; RUVBL1-RUVBL2 complex injected, 10 concentrations up to 75.2 nM; 20 mM NaKPi pH 7.5, 150 mM NaCl, 5 mM MgCl2, 1 mM DTT, 0.05% P20; 25 °C; 1:1 Langmuir model counting one hexamer of RUVBL1/2; Biacore 4000",
  "conditions": "both partners purified",
  "data": [
    {"binder": "B1", "values": [
      {"measurement": "Kd", "result": 4.18, "unit": "nM"},
      {"measurement": "koff", "result": 0.00112, "unit": "s⁻¹"},
      {"measurement": "kon", "result": 297000, "unit": "M⁻¹ s⁻¹"}
    ]}
  ]
}
